The record followed here is patent US20210032299A1.

As a reminder, the Ki is the equilibrium dissociation constant of an inhibitor or competing ligand from its target. Low readings indicate a stronger hold on the target, high ones a looser hold on the target.

Starred links: 1 amine or outer side, 2 acyl side, 3 side chain; linkers in the order of their positions; H or OH if unused. Non-standard residues stand in square brackets, D forms with d. Groups on a side chain read outwards from the residue. No end group written: not given here. *: point of attachment. C20 diacid = O=C(O)CCCCCCCCCCCCCCCCCCC(=O)*; C18 diacid = O=C(O)CCCCCCCCCCCCCCCCC(=O)*; γGlu = O=C(O)[C@H](CCC(=O)[*:2])N[*:1]; αMeL = CC(C)C[C@](C)(N)C(=O)O; Orn = NCCC[C@H](N)C(=O)O; AEEA = NCCOCCOCC(=O)O; Aib = CC(C)(N)C(=O)O

Sequences and labels used below:
T1: human glucose-dependent insulinotropic polypeptide (GIP) receptor (human), P48546
T1 chain: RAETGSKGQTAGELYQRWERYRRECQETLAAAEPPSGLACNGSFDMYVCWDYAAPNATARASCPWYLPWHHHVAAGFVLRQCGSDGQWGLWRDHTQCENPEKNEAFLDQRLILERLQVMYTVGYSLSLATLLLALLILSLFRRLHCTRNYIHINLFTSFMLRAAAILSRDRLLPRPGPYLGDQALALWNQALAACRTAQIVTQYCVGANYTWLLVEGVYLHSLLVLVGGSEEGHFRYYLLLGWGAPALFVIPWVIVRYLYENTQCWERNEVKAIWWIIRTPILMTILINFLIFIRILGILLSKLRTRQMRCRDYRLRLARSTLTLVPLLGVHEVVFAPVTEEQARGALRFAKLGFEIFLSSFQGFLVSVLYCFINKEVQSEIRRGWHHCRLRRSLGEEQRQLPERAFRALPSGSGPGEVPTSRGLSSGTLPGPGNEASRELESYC

B1: Example 104 (peptide)
peptide: Y[Aib]EGTFISDYSI[αMeL]LD[Orn]IHQ[Aib]EFVEYK([AEEA-AEEA-γGlu-C20 diacid])LEAGPSSGAPPPS-NH2
modifications: N-terminus assumed
SMILES: CC[C@H](C)[C@H](NC(=O)[C@H](CCCN)NC(=O)[C@H](CC(=O)O)NC(=O)[C@H](CC(C)C)NC(=O)[C@](C)(CC(C)C)NC(=O)[C@@H](NC(=O)[C@H](CO)NC(=O)[C@H](Cc1ccc(O)cc1)NC(=O)[C@H](CC(=O)O)NC(=O)[C@H](CO)NC(=O)[C@@H](NC(=O)[C@H](Cc1ccccc1)NC(=O)[C@@H](NC(=O)CNC(=O)[C@H](CCC(=O)O)NC(=O)C(C)(C)NC(=O)[C@@H](N)Cc1ccc(O)cc1)[C@@H](C)O)[C@@H](C)CC)[C@@H](C)CC)C(=O)N[C@@H](Cc1c[nH]cn1)C(=O)N[C@@H](CCC(N)=O)C(=O)NC(C)(C)C(=O)N[C@@H](CCC(=O)O)C(=O)N[C@@H](Cc1ccccc1)C(=O)N[C@H](C(=O)N[C@@H](CCC(=O)O)C(=O)N[C@@H](Cc1ccc(O)cc1)C(=O)N[C@@H](CCCCNC(=O)COCCOCCNC(=O)COCCOCCNC(=O)CC[C@H](NC(=O)CCCCCCCCCCCCCCCCCCC(=O)O)C(=O)O)C(=O)N[C@@H](CC(C)C)C(=O)N[C@@H](CCC(=O)O)C(=O)N[C@@H](C)C(=O)NCC(=O)N1CCC[C@H]1C(=O)N[C@@H](CO)C(=O)N[C@@H](CO)C(=O)NCC(=O)N[C@@H](C)C(=O)N1CCC[C@H]1C(=O)N1CCC[C@H]1C(=O)N1CCC[C@H]1C(=O)N[C@@H](CO)C(N)=O)C(C)C
B2: Example 96 (peptide)
peptide: Y[Aib]EGTFISDYSIALDKIHQ[Aib]EFVNYK([AEEA-AEEA-γGlu-C20 diacid])LAGGPSSGAPPPS-NH2
modifications: N-terminus assumed
SMILES: CC[C@H](C)[C@H](NC(=O)[C@H](CO)NC(=O)[C@H](Cc1ccc(O)cc1)NC(=O)[C@H](CC(=O)O)NC(=O)[C@H](CO)NC(=O)[C@@H](NC(=O)[C@H](Cc1ccccc1)NC(=O)[C@@H](NC(=O)CNC(=O)[C@H](CCC(=O)O)NC(=O)C(C)(C)NC(=O)[C@@H](N)Cc1ccc(O)cc1)[C@@H](C)O)[C@@H](C)CC)C(=O)N[C@@H](C)C(=O)N[C@@H](CC(C)C)C(=O)N[C@@H](CC(=O)O)C(=O)N[C@@H](CCCCN)C(=O)N[C@H](C(=O)N[C@@H](Cc1c[nH]cn1)C(=O)N[C@@H](CCC(N)=O)C(=O)NC(C)(C)C(=O)N[C@@H](CCC(=O)O)C(=O)N[C@@H](Cc1ccccc1)C(=O)N[C@H](C(=O)N[C@@H](CC(N)=O)C(=O)N[C@@H](Cc1ccc(O)cc1)C(=O)N[C@@H](CCCCNC(=O)COCCOCCNC(=O)COCCOCCNC(=O)CC[C@H](NC(=O)CCCCCCCCCCCCCCCCCCC(=O)O)C(=O)O)C(=O)N[C@@H](CC(C)C)C(=O)N[C@@H](C)C(=O)NCC(=O)NCC(=O)N1CCC[C@H]1C(=O)N[C@@H](CO)C(=O)N[C@@H](CO)C(=O)NCC(=O)N[C@@H](C)C(=O)N1CCC[C@H]1C(=O)N1CCC[C@H]1C(=O)N1CCC[C@H]1C(=O)N[C@@H](CO)C(N)=O)C(C)C)[C@@H](C)CC
B3: Example 102 (peptide)
peptide: Y[Aib]EGTFISDYSI[αMeL]LD[Orn]IHQ[Aib]EFV[dE]YK([AEEA-AEEA-γGlu-C20 diacid])LEGGPSSGAPPPS-NH2
modifications: N-terminus assumed
SMILES: CC[C@H](C)[C@H](NC(=O)[C@H](CCCN)NC(=O)[C@H](CC(=O)O)NC(=O)[C@H](CC(C)C)NC(=O)[C@](C)(CC(C)C)NC(=O)[C@@H](NC(=O)[C@H](CO)NC(=O)[C@H](Cc1ccc(O)cc1)NC(=O)[C@H](CC(=O)O)NC(=O)[C@H](CO)NC(=O)[C@@H](NC(=O)[C@H](Cc1ccccc1)NC(=O)[C@@H](NC(=O)CNC(=O)[C@H](CCC(=O)O)NC(=O)C(C)(C)NC(=O)[C@@H](N)Cc1ccc(O)cc1)[C@@H](C)O)[C@@H](C)CC)[C@@H](C)CC)C(=O)N[C@@H](Cc1c[nH]cn1)C(=O)N[C@@H](CCC(N)=O)C(=O)NC(C)(C)C(=O)N[C@@H](CCC(=O)O)C(=O)N[C@@H](Cc1ccccc1)C(=O)N[C@H](C(=O)N[C@H](CCC(=O)O)C(=O)N[C@@H](Cc1ccc(O)cc1)C(=O)N[C@@H](CCCCNC(=O)COCCOCCNC(=O)COCCOCCNC(=O)CC[C@H](NC(=O)CCCCCCCCCCCCCCCCCCC(=O)O)C(=O)O)C(=O)N[C@@H](CC(C)C)C(=O)N[C@@H](CCC(=O)O)C(=O)NCC(=O)NCC(=O)N1CCC[C@H]1C(=O)N[C@@H](CO)C(=O)N[C@@H](CO)C(=O)NCC(=O)N[C@@H](C)C(=O)N1CCC[C@H]1C(=O)N1CCC[C@H]1C(=O)N1CCC[C@H]1C(=O)N[C@@H](CO)C(N)=O)C(C)C
B4: Example 7 (peptide)
peptide: Y[Aib]EGTFISDYSI[αMeL]LD[Orn]IHQ[Aib]EFV[dE]YK([AEEA-AEEA-γGlu-C18 diacid])LEGGPSSGAPPPS-NH2
modifications: N-terminus assumed
SMILES: CC[C@H](C)[C@H](NC(=O)[C@H](CCCN)NC(=O)[C@H](CC(=O)O)NC(=O)[C@H](CC(C)C)NC(=O)[C@](C)(CC(C)C)NC(=O)[C@@H](NC(=O)[C@H](CO)NC(=O)[C@H](Cc1ccc(O)cc1)NC(=O)[C@H](CC(=O)O)NC(=O)[C@H](CO)NC(=O)[C@@H](NC(=O)[C@H](Cc1ccccc1)NC(=O)[C@@H](NC(=O)CNC(=O)[C@H](CCC(=O)O)NC(=O)C(C)(C)NC(=O)[C@@H](N)Cc1ccc(O)cc1)[C@@H](C)O)[C@@H](C)CC)[C@@H](C)CC)C(=O)N[C@@H](Cc1c[nH]cn1)C(=O)N[C@@H](CCC(N)=O)C(=O)NC(C)(C)C(=O)N[C@@H](CCC(=O)O)C(=O)N[C@@H](Cc1ccccc1)C(=O)N[C@H](C(=O)N[C@H](CCC(=O)O)C(=O)N[C@@H](Cc1ccc(O)cc1)C(=O)N[C@@H](CCCCNC(=O)COCCOCCNC(=O)COCCOCCNC(=O)CC[C@H](NC(=O)CCCCCCCCCCCCCCCCC(=O)O)C(=O)O)C(=O)N[C@@H](CC(C)C)C(=O)N[C@@H](CCC(=O)O)C(=O)NCC(=O)NCC(=O)N1CCC[C@H]1C(=O)N[C@@H](CO)C(=O)N[C@@H](CO)C(=O)NCC(=O)N[C@@H](C)C(=O)N1CCC[C@H]1C(=O)N1CCC[C@H]1C(=O)N1CCC[C@H]1C(=O)N[C@@H](CO)C(N)=O)C(C)C
B5: Example 103 (peptide)
peptide: Y[Aib]EGTFISDYSI[αMeL]LD[Orn]IHQ[Aib]DFVEYK([AEEA-AEEA-γGlu-C18 diacid])LEGGPSSGAPPPS-NH2
modifications: N-terminus assumed
SMILES: CC[C@H](C)[C@H](NC(=O)[C@H](CCCN)NC(=O)[C@H](CC(=O)O)NC(=O)[C@H](CC(C)C)NC(=O)[C@](C)(CC(C)C)NC(=O)[C@@H](NC(=O)[C@H](CO)NC(=O)[C@H](Cc1ccc(O)cc1)NC(=O)[C@H](CC(=O)O)NC(=O)[C@H](CO)NC(=O)[C@@H](NC(=O)[C@H](Cc1ccccc1)NC(=O)[C@@H](NC(=O)CNC(=O)[C@H](CCC(=O)O)NC(=O)C(C)(C)NC(=O)[C@@H](N)Cc1ccc(O)cc1)[C@@H](C)O)[C@@H](C)CC)[C@@H](C)CC)C(=O)N[C@@H](Cc1c[nH]cn1)C(=O)N[C@@H](CCC(N)=O)C(=O)NC(C)(C)C(=O)N[C@@H](CC(=O)O)C(=O)N[C@@H](Cc1ccccc1)C(=O)N[C@H](C(=O)N[C@@H](CCC(=O)O)C(=O)N[C@@H](Cc1ccc(O)cc1)C(=O)N[C@@H](CCCCNC(=O)COCCOCCNC(=O)COCCOCCNC(=O)CC[C@H](NC(=O)CCCCCCCCCCCCCCCCC(=O)O)C(=O)O)C(=O)N[C@@H](CC(C)C)C(=O)N[C@@H](CCC(=O)O)C(=O)NCC(=O)NCC(=O)N1CCC[C@H]1C(=O)N[C@@H](CO)C(=O)N[C@@H](CO)C(=O)NCC(=O)N[C@@H](C)C(=O)N1CCC[C@H]1C(=O)N1CCC[C@H]1C(=O)N1CCC[C@H]1C(=O)N[C@@H](CO)C(N)=O)C(C)C
B6: Example 105 (peptide)
peptide: Y[Aib]EGTFISDYSI[αMeL]LD[Orn]IHQ[Aib]EFVEYK([AEEA-AEEA-γGlu-C20 diacid])LETGPSSGAPPPS-NH2
modifications: N-terminus assumed
SMILES: CC[C@H](C)[C@H](NC(=O)[C@H](CCCN)NC(=O)[C@H](CC(=O)O)NC(=O)[C@H](CC(C)C)NC(=O)[C@](C)(CC(C)C)NC(=O)[C@@H](NC(=O)[C@H](CO)NC(=O)[C@H](Cc1ccc(O)cc1)NC(=O)[C@H](CC(=O)O)NC(=O)[C@H](CO)NC(=O)[C@@H](NC(=O)[C@H](Cc1ccccc1)NC(=O)[C@@H](NC(=O)CNC(=O)[C@H](CCC(=O)O)NC(=O)C(C)(C)NC(=O)[C@@H](N)Cc1ccc(O)cc1)[C@@H](C)O)[C@@H](C)CC)[C@@H](C)CC)C(=O)N[C@@H](Cc1c[nH]cn1)C(=O)N[C@@H](CCC(N)=O)C(=O)NC(C)(C)C(=O)N[C@@H](CCC(=O)O)C(=O)N[C@@H](Cc1ccccc1)C(=O)N[C@H](C(=O)N[C@@H](CCC(=O)O)C(=O)N[C@@H](Cc1ccc(O)cc1)C(=O)N[C@@H](CCCCNC(=O)COCCOCCNC(=O)COCCOCCNC(=O)CC[C@H](NC(=O)CCCCCCCCCCCCCCCCCCC(=O)O)C(=O)O)C(=O)N[C@@H](CC(C)C)C(=O)N[C@@H](CCC(=O)O)C(=O)N[C@H](C(=O)NCC(=O)N1CCC[C@H]1C(=O)N[C@@H](CO)C(=O)N[C@@H](CO)C(=O)NCC(=O)N[C@@H](C)C(=O)N1CCC[C@H]1C(=O)N1CCC[C@H]1C(=O)N1CCC[C@H]1C(=O)N[C@@H](CO)C(N)=O)[C@@H](C)O)C(C)C

This assay has as its target T1, human glucose-dependent insulinotropic …. The assay can be described thus: SPA, displacement of [125I]-GIP from hGIPR membranes, 0.1% bacitracin.
As for Y[Aib]EGTFISDYSI[αMeL]LD[Orn]IHQ[Aib]DFV[dE]YK([AEEA-AEEA-γGlu-C20 diacid])LEGGPSSGAPPPS-NH2 [Example 101], the Ki turned out to be 0.139 nM. In the case of B1 it was 0.134 nM; in that of B2, 0.232 nM; in that of B3, 0.164 nM. Under B4 stands 0.193 nM. Molecule B5 had a Ki of 0.0405 nM. In the case of B6 it was 0.174 nM.
